Measurements from article PMC8675452.

Target: biotinylated MPER peptide (MPERbiot) (HIV (strain not stated))
Experiment: BLI

- koff: 0.00126 s⁻¹
Substance: trispecific anti-HIV antibody (SAR441236)
